Assay [1] deals with T1, human FGFR2b (Kaixia Biotechnology, catalog number FGR-HM1BB) (human, UniProt P21802-3 22-378).
T1 construct: extracellular domain; bought; also called hFGFR2b; human FGFR2b protein
The assay is described as follows: BLI, antibody on AHC2 sensor.

In the next assay the target is T2, FGFR2b on KATO III cells (human, UniProt P21802-3 22-822).
T2 construct: whole, on cells; also called KATO III cells that overexpress FGFR2b
The assay is described as follows: flow cytometry, KATO III cells.

T1 sequence (P21802 other isoform, or with tags, fused parts or gaps): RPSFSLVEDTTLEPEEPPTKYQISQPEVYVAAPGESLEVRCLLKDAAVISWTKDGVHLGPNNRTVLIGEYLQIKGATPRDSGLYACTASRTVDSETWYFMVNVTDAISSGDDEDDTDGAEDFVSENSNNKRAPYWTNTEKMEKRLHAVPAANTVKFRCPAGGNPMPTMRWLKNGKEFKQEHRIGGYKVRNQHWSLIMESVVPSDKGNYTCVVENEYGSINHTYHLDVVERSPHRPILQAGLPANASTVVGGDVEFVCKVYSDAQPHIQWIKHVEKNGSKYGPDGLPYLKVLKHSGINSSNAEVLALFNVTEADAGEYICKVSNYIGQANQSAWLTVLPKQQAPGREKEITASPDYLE
T2 sequence (P21802 other isoform, or with tags, fused parts or gaps): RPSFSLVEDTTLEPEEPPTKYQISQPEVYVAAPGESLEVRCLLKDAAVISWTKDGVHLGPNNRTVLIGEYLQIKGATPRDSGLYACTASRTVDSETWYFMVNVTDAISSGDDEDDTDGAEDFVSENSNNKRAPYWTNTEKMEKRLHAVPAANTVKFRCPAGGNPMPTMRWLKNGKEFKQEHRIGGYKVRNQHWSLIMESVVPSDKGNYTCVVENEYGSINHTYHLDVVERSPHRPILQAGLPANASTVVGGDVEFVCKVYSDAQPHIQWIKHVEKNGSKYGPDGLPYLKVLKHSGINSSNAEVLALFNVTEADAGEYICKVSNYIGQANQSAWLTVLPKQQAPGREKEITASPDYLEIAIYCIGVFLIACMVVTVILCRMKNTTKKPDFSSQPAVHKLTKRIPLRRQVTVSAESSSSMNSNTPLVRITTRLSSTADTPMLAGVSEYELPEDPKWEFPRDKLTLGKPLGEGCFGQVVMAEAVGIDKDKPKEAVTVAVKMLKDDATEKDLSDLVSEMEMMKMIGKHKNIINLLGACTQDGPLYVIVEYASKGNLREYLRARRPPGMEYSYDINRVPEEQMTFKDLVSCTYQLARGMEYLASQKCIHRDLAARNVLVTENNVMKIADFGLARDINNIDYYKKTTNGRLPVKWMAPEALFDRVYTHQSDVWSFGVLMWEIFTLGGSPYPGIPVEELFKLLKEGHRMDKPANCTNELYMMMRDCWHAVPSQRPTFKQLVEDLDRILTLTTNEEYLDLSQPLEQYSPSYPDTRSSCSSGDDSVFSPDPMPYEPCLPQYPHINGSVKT

B1: 3C7-VH0-VL3 (antibody, human IgG1, kappa, V domains shown)
VH: QVQLVQSGAEVKKPGASVKVSCKASGYTFTNYYIHWVRQAPGQGLEWMGAIYPDNGDTSYNQRFKVRATLTADTSTSTVYMELSSLRSEDTAVYYCARAFTYWGQGTTVTVSS
VL: DIQMTQSPSSLSASVGDRVTITCGASENIYGALNWYQRKPGKSPKLLIYGATNLADGVPSRFSGSGSGTDYTLTISSLQPEDVATYYCQNVLSTPYTFGGGTKLEIKR
notes: humanized IgG1
In the case of B1, in assay [1], the dissociation constant (Kd) (commonly the concentration at which binding is half-saturated) was 13.6 nM; the dissociation rate constant (koff) (as a rule, the first-order rate constant of dissociation) stood at 0.00323 s⁻¹; the kon (usually the rate constant with which the complex forms) was determined as 238000 M⁻¹ s⁻¹. Moreover, in the assay with FGFR2b on KATO III cells, the response was half-maximal at 0.443 µg/mL (EC50).

B2: 3C7-VH1-VL0 (antibody, human IgG1, kappa, V domains shown)
VH: QVQLVQSGAEVKKPGASVKVSCKASGYIFTNYYIHWVRQAPGQGLEWMGAIYPDNGDTSYNQRFKVRATLTADTSTSTVYMELSSLRSEDTAVYYCARAFTYWGQGTTVTVSS
VL: DIQMTQSPSSLSASVGDRVTITCRASENIYGALNWYQQKPGKAPKLLIYGATNLADGVPSRFSGSGSGTDFTLTISSLQPEDFATYYCQNVLSTPYTFGGGTKVEIKR
notes: humanized IgG1
For B2, in assay [1], the equilibrium dissociation constant (Kd) stood at 1.89 nM, the dissociation rate constant (koff) was 0.000955 s⁻¹ and the kon turned out to be 504000 M⁻¹ s⁻¹. Further, the EC50 (commonly the concentration needed to bring the measured effect to its halfway point) with FGFR2b on KATO III cells was 0.396 µg/mL.

B3: 3C7-VH1-VL1 (antibody, human IgG1, kappa, V domains shown)
VH: QVQLVQSGAEVKKPGASVKVSCKASGYIFTNYYIHWVRQAPGQGLEWMGAIYPDNGDTSYNQRFKVRATLTADTSTSTVYMELSSLRSEDTAVYYCARAFTYWGQGTTVTVSS
VL: DIQMTQSPSSLSASVGDRVTITCGASENIYGALNWYQQKPGKAPKLLIYGATNLADGVPSRFSGSGSGTDYTLTISSLQPEDVATYYCQNVLSTPYTFGGGTKVEIKR
notes: humanized IgG1
In assay [1], B3 registered a Kd of 3.24 nM, a dissociation rate constant (koff) of 0.00131 s⁻¹ and a kon of 405000 M⁻¹ s⁻¹. A half-maximal response in the assay with FGFR2b on KATO III cells (EC50) required 0.506 µg/mL.

B4: 3C7-VH2-VL3 (antibody, human IgG1, kappa, V domains shown)
VH: QVQLVQSGAEVKKPGASVKVSCKASGYIFRNYYIHWVRQAPGQGLEWMGAIYPDNGDTSYNQRFKVRATLTADTSTSTVYMELSSLRSEDTAVYYCARAFTYWGQGTTVTVSS
VL: DIQMTQSPSSLSASVGDRVTITCGASENIYGALNWYQRKPGKSPKLLIYGATNLADGVPSRFSGSGSGTDYTLTISSLQPEDVATYYCQNVLSTPYTFGGGTKLEIKR
notes: humanized IgG1
For the molecule B4, in assay [1], the Kd came to 2.77 nM, the koff stood at 0.000754 s⁻¹ and the on-rate (kon) came out at 272000 M⁻¹ s⁻¹. The molecule also displayed an EC50 with FGFR2b on KATO III cells of 0.572 µg/mL.

B5: 3C7-VH3-VL3 (antibody, human IgG1, kappa, V domains shown)
VH: QVQLVQSGAEVKKPGASVKVSCKASGYIFRNYYIHWVKQAPGQGLEWMGAIYPDNGDTSYNQRFKVRATLTADTSTSTVYMELSSLRSEDTAVYYCARAFTYWGQGTTVTVSS
VL: DIQMTQSPSSLSASVGDRVTITCGASENIYGALNWYQRKPGKSPKLLIYGATNLADGVPSRFSGSGSGTDYTLTISSLQPEDVATYYCQNVLSTPYTFGGGTKLEIKR
notes: humanized IgG1
In assay [1], B5 gave a Kd of 2.43 nM, a koff of 0.000777 s⁻¹ and an association rate constant (kon) of 320000 M⁻¹ s⁻¹. This molecule also returned an EC50 in the assay with FGFR2b on KATO III cells of 0.536 µg/mL.

B6: 3C7-VH2-VL1 (antibody, human IgG1, kappa, V domains shown)
VH: QVQLVQSGAEVKKPGASVKVSCKASGYIFRNYYIHWVRQAPGQGLEWMGAIYPDNGDTSYNQRFKVRATLTADTSTSTVYMELSSLRSEDTAVYYCARAFTYWGQGTTVTVSS
VL: DIQMTQSPSSLSASVGDRVTITCGASENIYGALNWYQQKPGKAPKLLIYGATNLADGVPSRFSGSGSGTDYTLTISSLQPEDVATYYCQNVLSTPYTFGGGTKVEIKR
notes: humanized IgG1
In assay [1], B6 came in with a Kd of 2.92 nM, an off-rate (koff) of 0.000718 s⁻¹ and a kon of 246000 M⁻¹ s⁻¹. The response in the assay with FGFR2b on KATO III cells was half-maximal at 0.302 µg/mL (EC50).

B7: 3C7-VH2-VL0 (antibody, human IgG1, kappa, V domains shown)
VH: QVQLVQSGAEVKKPGASVKVSCKASGYIFRNYYIHWVRQAPGQGLEWMGAIYPDNGDTSYNQRFKVRATLTADTSTSTVYMELSSLRSEDTAVYYCARAFTYWGQGTTVTVSS
VL: DIQMTQSPSSLSASVGDRVTITCRASENIYGALNWYQQKPGKAPKLLIYGATNLADGVPSRFSGSGSGTDFTLTISSLQPEDFATYYCQNVLSTPYTFGGGTKVEIKR
notes: humanized IgG1
In assay [1], B7 yielded a dissociation constant Kd of 1.63 nM, an off-rate (koff) of 0.000829 s⁻¹ and a kon of 509000 M⁻¹ s⁻¹. The molecule further had an EC50 in the assay with FGFR2b on KATO III cells of 0.436 µg/mL.

B8: 3C7-VH3-VL2 (antibody, human IgG1, kappa, V domains shown)
VH: QVQLVQSGAEVKKPGASVKVSCKASGYIFRNYYIHWVKQAPGQGLEWMGAIYPDNGDTSYNQRFKVRATLTADTSTSTVYMELSSLRSEDTAVYYCARAFTYWGQGTTVTVSS
VL: DIQMTQSPSSLSASVGDRVTITCGASENIYGALNWYQRKPGKAPKLLIYGATNLADGVPSRFSGSGSGTDYTLTISSLQPEDFATYYCQNVLSTPYTFGGGTKLEIKR
notes: humanized IgG1
With B8, in assay [1], binding was put at a Kd of 2.48 nM, the off-rate (koff) came to 0.000829 s⁻¹ and the kon is 334000 M⁻¹ s⁻¹. The same molecule showed a concentration for a half-maximal effect (EC50) with FGFR2b on KATO III cells of 0.523 µg/mL.

B9: 3C7-VH3-VL1 (antibody, human IgG1, kappa, V domains shown)
VH: QVQLVQSGAEVKKPGASVKVSCKASGYIFRNYYIHWVKQAPGQGLEWMGAIYPDNGDTSYNQRFKVRATLTADTSTSTVYMELSSLRSEDTAVYYCARAFTYWGQGTTVTVSS
VL: DIQMTQSPSSLSASVGDRVTITCGASENIYGALNWYQQKPGKAPKLLIYGATNLADGVPSRFSGSGSGTDYTLTISSLQPEDVATYYCQNVLSTPYTFGGGTKVEIKR
notes: humanized IgG1
For the molecule B9, in assay [1], the Kd is 2.46 nM, the off-rate constant (koff) was found to be 0.00106 s⁻¹ and the kon stood at 429000 M⁻¹ s⁻¹. This molecule also yielded an EC50 in the assay with FGFR2b on KATO III cells of 0.446 µg/mL.

B10: 3C7-VH1-VL3 (antibody, human IgG1, kappa, V domains shown)
VH: QVQLVQSGAEVKKPGASVKVSCKASGYIFTNYYIHWVRQAPGQGLEWMGAIYPDNGDTSYNQRFKVRATLTADTSTSTVYMELSSLRSEDTAVYYCARAFTYWGQGTTVTVSS
VL: DIQMTQSPSSLSASVGDRVTITCGASENIYGALNWYQRKPGKSPKLLIYGATNLADGVPSRFSGSGSGTDYTLTISSLQPEDVATYYCQNVLSTPYTFGGGTKLEIKR
notes: humanized IgG1
Consider B10, for which, in assay [1], binding was put at a Kd of 3.04 nM, the koff is 0.00122 s⁻¹ and the association rate constant (kon) came to 403000 M⁻¹ s⁻¹. This molecule came in with a concentration for a half-maximal effect (EC50) with FGFR2b on KATO III cells of 0.565 µg/mL.

B11: 3C7-VH3-VL0 (antibody, human IgG1, kappa, V domains shown)
VH: QVQLVQSGAEVKKPGASVKVSCKASGYIFRNYYIHWVKQAPGQGLEWMGAIYPDNGDTSYNQRFKVRATLTADTSTSTVYMELSSLRSEDTAVYYCARAFTYWGQGTTVTVSS
VL: DIQMTQSPSSLSASVGDRVTITCRASENIYGALNWYQQKPGKAPKLLIYGATNLADGVPSRFSGSGSGTDFTLTISSLQPEDFATYYCQNVLSTPYTFGGGTKVEIKR
notes: humanized IgG1
For the molecule B11, in assay [1], the Kd came out at 2.51 nM, the koff was found to be 0.000831 s⁻¹ and the kon worked out at 331000 M⁻¹ s⁻¹. A half-maximal effect with FGFR2b on KATO III cells (EC50) was put at 0.624 µg/mL.

The values above are taken from patent EP4714976A1 (Sunshine Lake Pharma Co., Ltd., dated 2026).
